# Positions count from the first letter of the chain named.
# B1: mAb clone 14 (antibody, V domains shown)
# VH: QVQLQQSGAELMKPGASVKISCKATGYTFSSYWIEWVKQRPGHGLEWIGEILPGSGSTNYNEKFKGKATFTADTSSNTAYMQLSSLTSEDSAVYYCASGSAGNYYGSSYEAMDYWGQGTSVTVSS
# VL: DIVLTQSPASLAVSLGQRATISCRASKSVSTSGYSYMHWYQQKPGQPPKLLIYLASNLESGVPARFSGSGSGTDFTLNIHPVEEEDAATYYCQHSRELPLTFGAGTKLELK
# notes: also called GEGI/14IIa
# B2: mAb clone 43 (antibody, V domains shown)
# VH: DVKLVESGGGLVKPGGSLKLSCAASGFTFSSYTMSWVRQTPEKRLEWVATISSGGSYTYYPDSVKGRFTISRDNAKNTLYLQMSSLKAEDTAMYYCTRGGYGSSFENYFDYWGQGTTLTVSS
# VL: DIVMSQSPSSLAVSAGEKVTMSCKSSQSLLNSRTRKNYLAWYQQKPGQSPKLLIYWASTRESGVPDRFTGSGSGTDFTLTISSVQAEDLAVYSCKQSYNLPLTFGAGTKLELK
# notes: also called GEGI/43IIa
# B3: mAb clone 47 (antibody, V domains shown)
# VH: EVKLVESGGGLVQPGGSLRLSCATSGFTFTDYYMSWVRQPPGKALEWLGFIRNKANGYTTEYSASVKGRFTISRDNSQSILYLQMNTLRAEDSATYYCARDRPGFDYWGQGTTLTVSS
# VL: NIVLTQSPASLAVSLGQRATISCRASESVDSFGNSFMHWYQQKPGQPPKLLIYLASNLESGVPARFSGSGSRTDFTLTIDPVEADDAATYYCQQNNEDPPWTFGGGTKLEIK
# B4: mAb clone 35, 36 (antibody, V domains shown)
# VH: QVQLKESGPGLVAPSQSLSITCTVSGFSLTSYGVHWVRQPPGKGLEWLGVIWAGGSTNYNSALMSRLSISKDNSKSQVFLKMNSLQTDDTAMYYCATDGYKFFYYAMDYWGQGTSVTVSS
# VL: DIVMTQAAPSVPVTPGESVSISCRSSKSLLHSNGNTYLYWFLQRPGQSPQLLIYRMSNLASGVPDRFSGSGSGTAFTLRISRVEAEDVGVYYCMQHLEYPFTFGSGTKLEIK
# B5: mAb clone 44 (antibody, V domains shown)
# VH: EVQLQQSGPELEKPGASVKISCKASGYSFTGYNMNWVKQSNGKSLEWIGNIDPYYGGIRYNQKFKGKATLTVDKSSSTAYMQLKSLTSEDSAVYYCAREDRYLVHYYAMDYWGQGTSVTVSS
# VL: QIVLTQSPAIMSASPGEKVTMTCSASSSISYMHWYQQKPGTSPKRWIYDTSKLASGVPARFSGSGSGTSYSLTISSMEAEDAATYYCHQRSSYPYTFGGGTKLEIK
# B6: mAb clone 19 (antibody, V domains shown)
# VH: QVQLQQSGAELVRPGVSVKISCKGSGYTFTDYAMHWVKQSHAKSLEWIGVISTYYGDARYNQKFKGKATMTVDKSSSTAYMELARLTSEDSAIYYCARRGITVVADYAMDYWGQGTSVTVSS
# VL: B5 VL with T22S, I29V, S30T, P39S, H88Q, R90W, Y93N, Y95P
# B7: mAb clone 34 (antibody, V domains shown)
# VH: EVKLVESGGGLVQPGGSLKLSCATSGFTFSDYYMYWVRQTPEKRLEWVAYISNGGDSTYYPDTVKGRFTISRDNAKNTLYLQMSRLKSEDTAMYYCARSYYGNPFPYWGQGTLVTVSA
# VL: ENVLTQSPAIMSASPGEKVTMTCRASSSVSSSYLHWYQQKSGASPKLWIYSTSNLASGVPARFSGSGSGTSYSLTISSVEAEDAATYYCQQYSGYPLTFGAGTKLELK
# B8: mAb clone 39 (antibody, V domains shown)
# VH: EVKLVESGGGLVQPGGSLKLSCAASGFTFSSYTMSWVRQTPEKRLEWVAYISNGGGSTYYPDTVKGRFTISRDNAKNTLYLQMSSLKSEDTAMYYCARGVSYYGDLYYFDYWGQGTTLTVSS
# VL: DVVVTQTPLSLPVSFGDQVSISCRSSQSLANSYGNTYLSWYLHKPGQSPQLLIYGISNRFSGVPDRFSGSGSGTDFTLKISTIKPEDLGMYYCLQGTHQPWTFGGGTKLEIK
# Target: T1, gEgI WT: HSV2 gEgI heterodimer comprising gE and gI wildtype ectodomains (HSV2, UniProt P89475 21-416; P06764 21-256)
# Test: ELISA, supernatant
row,Binder,binding result
1,B1,binds
2,B2,binds
3,B3,binds
4,B4,binds
5,B5,binds

# Target: T2, gE WT: HSV2 gE wildtype ectodomain (HSV2, UniProt P89475 21-416)
# Test: ELISA, supernatant
row,Binder,binding result
1,B6,no binding
2,B7,no binding
3,B1,binds
4,B2,binds
5,B3,binds
6,B4,binds
7,B5,binds

# Target: T3, gI WT: HSV2 gI wildtype ectodomain (HSV2, UniProt P06764 21-256)
# Test: ELISA, supernatant
row,Binder,binding result
1,B6,no binding
2,B4,binds
3,B5,binds

# Target: gEgI mutant (R320D): HSV2 gEgI mutant heterodimer comprising gE and gI ectodomains with mutation R320D in gE (HSV2, UniProt P89475 21-416; P06764 21-256)
# Test: ELISA, supernatant
row,Binder,binding result
1,B1,binds
2,B2,binds
3,B3,no binding
4,B4,binds
5,B5,binds

# Target: gEgI mutant (338): HSV2 gEgI mutant heterodimer comprising gE and gI ectodomains with insertion of a (HSV2, UniProt P89475 21-416; P06764 21-256)
# Test: ELISA, supernatant
row,Binder,binding result
1,B6,binds
2,B7,binds
3,B1,binds
4,B2,binds
5,B3,no binding
6,B4,binds
7,B5,binds
8,B8,binds

# Target: gEgI mutant (P319D): HSV2 gEgI mutant heterodimer comprising gE and gI ectodomains with mutation P319D in gE (HSV2, UniProt P89475 21-416; P06764 21-256)
# Test: ELISA, supernatant
row,Binder,binding result
1,B1,binds
2,B2,binds
3,B3,no binding
4,B4,binds
5,B5,binds

# Target: gEgI mutant (P317R): HSV2 gEgI mutant heterodimer comprising gE and gI ectodomains with mutation P317R in gE (HSV2, UniProt P89475 21-416; P06764 21-256)
# Test: ELISA, supernatant
row,Binder,binding result
1,B1,binds
2,B2,binds
3,B3,no binding
4,B4,binds
5,B5,binds

# Target: T2, gE WT: HSV2 gE wildtype ectodomain
# Test: ELISA, supernatant
# Remark: another data set of the same source
row,Binder,binding result
1,B8,no binding

# Target: T3, gI WT: HSV2 gI wildtype ectodomain
# Test: ELISA, supernatant
# Remark: another data set of the same source
row,Binder,binding result
1,B7,no binding
2,B1,no binding
3,B2,no binding
4,B3,no binding
5,B8,no binding

# Target: T1, gEgI WT: HSV2 gEgI heterodimer …
# Test: SPR binning; gEgI captured by mAb 5
row,Binder,RU [RU]
1,B6,17.2
2,B7,-2.1
3,B8,0.6

# Target: T1, gEgI WT: HSV2 gEgI heterodimer …
# Test: SPR binning; gEgI captured by mAb 9
row,Binder,RU [RU]
1,B6,6.4
2,B7,-3.9
3,B8,-1.5

# Target: T1, gEgI WT: HSV2 gEgI heterodimer …
# Test: SPR binning; gEgI captured by mAb 10
row,Binder,RU [RU]
1,B6,24.4
2,B7,1.3
3,B8,2.3

# Target: T1, gEgI WT: HSV2 gEgI heterodimer …
# Test: SPR binning; gEgI captured by mAb 15
row,Binder,RU [RU]
1,B6,23
2,B7,-2.7
3,B8,-4.8

# Target: T1, gEgI WT: HSV2 gEgI heterodimer …
# Test: SPR binning; gEgI captured by mAb 17
row,Binder,RU [RU]
1,B6,18.1
2,B7,-3.3
3,B8,-0.6

# Target: T1, gEgI WT: HSV2 gEgI heterodimer …
# Test: SPR binning; gEgI captured by mAb 19
row,Binder,RU [RU]
1,B6,-3.4
2,B7,-8.4
3,B8,-7.2

# Target: T1, gEgI WT: HSV2 gEgI heterodimer …
# Test: SPR binning; gEgI captured by mAb 20
row,Binder,RU [RU]
1,B6,9
2,B7,0.4
3,B8,3.1

# Target: T1, gEgI WT: HSV2 gEgI heterodimer …
# Test: SPR binning; gEgI captured by mAb 24
row,Binder,RU [RU]
1,B6,3.2
2,B7,-3.6
3,B8,-0.9

# Target: T1, gEgI WT: HSV2 gEgI heterodimer …
# Test: SPR binning; gEgI captured by mAb 34
row,Binder,RU [RU]
1,B6,9.3
2,B7,-11.1
3,B8,-6.4

# Target: T1, gEgI WT: HSV2 gEgI heterodimer …
# Test: SPR binning; gEgI captured by mAb 39
row,Binder,RU [RU]
1,B6,16.2
2,B7,-1.5
3,B8,1.3

# Target: T1, gEgI WT: HSV2 gEgI heterodimer …
# Test: SPR binning; gEgI captured by mAb 40
row,Binder,RU [RU]
1,B6,13.9
2,B7,-4.1
3,B8,-1.2

# Target: T1, gEgI WT: HSV2 gEgI heterodimer …
# Test: SPR binning; gEgI captured by mAb 42
row,Binder,RU [RU]
1,B6,16.3
2,B7,-2.4
3,B8,0.1

# Target: T1, gEgI WT: HSV2 gEgI heterodimer …
# Test: SPR binning; gEgI captured by mAb 45
row,Binder,RU [RU]
1,B6,9.2
2,B7,-6.3
3,B8,-5.4

# Target: T1, gEgI WT: HSV2 gEgI heterodimer …
# Test: Biacore SPR, gEgI CHO BMP1181 at 10 µg/ml for 180 s over the mAb
row,Binder,RU Ag/250 RU mAbs [RU Ag/250 RU mAbs]
1,B6,6.49
2,B7,12.8

# Target: T1, gEgI WT: HSV2 gEgI heterodimer …
# Test: Biacore SPR, gEgI HEK BMP1063 at 10 µg/ml for 180 s over the mAb
row,Binder,RU Ag/250 RU mAbs [RU Ag/250 RU mAbs]
1,B6,7.88
2,B7,14.4

# — patent US20230331820A1 (GlaxoSmithKline, published 2023)
